# Source: the supplement of paper PMC10724198
# ± gives the standard deviation of the averaged measurements.
# Columns and labels:
# Saccharomyces cerevisiae [1] = assay: protein stability index of tFT-peptide fusion (C-terminal peptide) (PSI (0-1 scale)); higher = more stable (slower turnover)
# Procedure: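 MPS profiling in S. cerevisiae of the tFT-X12 degron library: putative degron peptides plus stable controls, 12 aa, fused to the C-terminus of a sfGFP-mCherry timer. Cells are FACS-sorted into 8 mCherry/sfGFP bins and deep-sequenced. PSI runs from 0 (unstable) to 1 (stable). Backgrounds are wild type, das1Δ and doa10Δ at 30 °C, and wild type, das1Δ, cdc34-1 and cdc53-1 at 37 °C; 2-3 technical replicates each.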
# Saccharomyces cerevisiae [2] = assay: as above; conditions: genetic background: wild type; temperature: 30 C
# [3] = genetic background: cdc34-1, temperature: 37 C
# [4] = genetic background: cdc53-1, temperature: 37 C
# [5] = genetic background: das1 deletion, temperature: 30 C
# [6] = genetic background: das1 deletion, temperature: 37 C
# [7] = genetic background: doa10 deletion, temperature: 30 C
# [8] = genetic background: wild type, temperature: 30 C
# [9] = genetic background: wild type, temperature: 37 C
# 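Also: PSI is a weighted mean of sequencing reads over stability bins, variants kept only with over 10 reads, mCherry proximal and sfGFP distal, peptide attached via GGGS linker.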
Sequence,protein stability index (Saccharomyces cerevisiae [1]; [3]),protein stability index (Saccharomyces cerevisiae [1]; [4]),protein stability index (Saccharomyces cerevisiae [1]; [5]),protein stability index (Saccharomyces cerevisiae [1]; [6]),protein stability index (Saccharomyces cerevisiae [1]; [7]),protein stability index (Saccharomyces cerevisiae [1]; [8]),protein stability index (Saccharomyces cerevisiae [1]; [9]),protein stability index (Saccharomyces cerevisiae [2])
VPVWHTVKLYCF,0.342 ± 0.0081,0.439 ± 0.0077,0.345 ± 0.038,0.4934 ± 0.0021,0.073 ± 0.00079,0.088 ± 0.017,0.0851 ± 0.018,0.159 ± 0.061
LNALSHCRAICS,0.632 ± 0.027,0.687 ± 0.0091,0.604 ± 0.023,0.692 ± 0.015,0.238 ± 0.0073,0.268 ± 0.028,0.462 ± 0.0055,0.379 ± 0.039
PRFCVYARFHNT,0.713 ± 0.016,0.748 ± 0.01,0.649 ± 0.036,0.722 ± 0.054,0.298 ± 0.023,0.375 ± 0.033,0.567 ± 0.02,0.387 ± 0.022
VWACWCGWVLLM,0.319 ± 0.038,0.388 ± 0.024,0.314 ± 0.027,0.4667 ± 0.0039,0.153 ± 0.0066,0.15 ± 0.019,0.195 ± 0.0032,0.235 ± 0.072
LLDIYFILLVWF,0.263 ± 0.02,0.237 ± 0.03,0.267 ± 0.023,0.399 ± 0.024,0.359 ± 0.021,0.258 ± 0.019,0.432 ± 0.066,0.346 ± 0.29
SLEACYCFVVLV,0.187 ± 0.0034,0.199 ± 0.0087,0.214 ± 0.028,0.291 ± 0.0068,0.175 ± 0.019,0.186 ± 0.023,0.25 ± 0.015,0.2744 ± 0.00036
GVWSLDWFLLVW,0.0785 ± 0.021,0.187 ± 0.026,0.158 ± 0.016,0.223 ± 0.0023,0.134 ± 0.016,0.15 ± 0.023,0.217 ± 0.017,0.24 ± 0.016
VWLFCLSRLYLL,0.298 ± 0.039,0.383 ± 0.007,0.38 ± 0.03,0.4939 ± 0.0043,0.143 ± 0.015,0.101 ± 0.023,0.114 ± 0.011,0.206 ± 0.052
PSPPPPLPPHPS,0.688 ± 0.039,0.7321 ± 0.0069,0.69 ± 0.031,0.72 ± 0.01,0.685 ± 0.019,0.667 ± 0.013,0.716 ± 0.032,0.721 ± 0.025
YPRLVGGCWFRL,0.318 ± 0.03,0.258 ± 0.037,0.371 ± 0.016,0.547 ± 0.032,0.644 ± 0.043,0.319 ± 0.041,0.603 ± 0.031,0.403 ± 0.047
LCFVFVLGFFAF,0.379 ± 0.058,0.4836 ± 0.0019,0.349 ± 0.031,0.488 ± 0.0085,0.319 ± 0.011,0.334 ± 0.012,0.501 ± 0.022,0.421 ± 0.017
VVTLHISLFYPG,0.447 ± 0.033,0.511 ± 0.018,0.406 ± 0.031,0.5 ± 0.0056,0.418 ± 0.06,0.415 ± 0.029,0.461 ± 0.019,0.479 ± 0.023
PSPPPPRPASPS,0.7 ± 0.052,0.7492 ± 0.0073,0.651 ± 0.0084,0.72829 ± 0.00037,0.667 ± 0.048,0.652 ± 0.015,0.719 ± 0.0084,0.439 ± 0.023
RTSRPVRLFRIH,0.753 ± 0.031,0.83846 ± 4.9e-05,0.656 ± 0.022,0.78 ± 0.009,0.26 ± 0.051,0.279 ± 0.046,0.448 ± 0.0097,0.402 ± 0.06
VVRLRVWRLLKV,0.267 ± 0.022,0.33 ± 0.048,0.253 ± 0.03,0.42491 ± 4.8e-05,0.101 ± 0.034,0.161 ± 0.026,0.185 ± 0.016,0.225 ± 0.023
LSLGVGSDAEGG,0.687 ± 0.06,0.736 ± 0.015,0.64 ± 0.02,0.743 ± 0.031,0.646 ± 0.021,0.645 ± 0.007,0.712 ± 0.0096,0.549 ± 0.17
LFRNIFLFVFLI,0.267 ± 0.029,0.229 ± 0.0072,0.362 ± 0.021,0.468 ± 0.012,0.334 ± 0.0071,0.241 ± 0.02,0.307 ± 0.016,0.306 ± 0.029
GRAVGLANFTIK,0.659 ± 0.02,0.756 ± 0.033,0.641 ± 0.026,0.735 ± 0.015,0.65 ± 0.044,0.68 ± 0.042,0.7006 ± 0.0042,0.129 ± 0.012
GGGVWWGVLVLG,0.37 ± 0.028,0.451 ± 0.064,0.31 ± 0.037,0.50956 ± 0.00012,0.262 ± 0.0072,0.309 ± 0.033,0.4678 ± 0.0034,0.46142 ± 8.8e-05
FLSRHFLFLSFV,0.467 ± 0.036,0.489 ± 0.047,0.505 ± 0.019,0.6779 ± 0.0061,0.4114 ± 0.0017,0.308 ± 0.031,0.443 ± 0.006,0.409 ± 0.016
